Results on two molecules are retold here after patent US11732048B2, “Anti-axl antagonistic antibodies” (BERGEN TEKNOLOGIOVERFØRING AS, priority 2016, dated 2023).

Experiment [1] concerns the target T1, Tyro3 (rhTyro3/Dtk-Fc chimera) (Homo sapiens, UniProt Q06418).
T1 construct: Soluble recombinant antigens corresponding to the extracellular domains of members of the human TAM receptor family; Fc; purchased R&D Systems 859-DK
T1 sequence (Q06418 41-429 limits assumed): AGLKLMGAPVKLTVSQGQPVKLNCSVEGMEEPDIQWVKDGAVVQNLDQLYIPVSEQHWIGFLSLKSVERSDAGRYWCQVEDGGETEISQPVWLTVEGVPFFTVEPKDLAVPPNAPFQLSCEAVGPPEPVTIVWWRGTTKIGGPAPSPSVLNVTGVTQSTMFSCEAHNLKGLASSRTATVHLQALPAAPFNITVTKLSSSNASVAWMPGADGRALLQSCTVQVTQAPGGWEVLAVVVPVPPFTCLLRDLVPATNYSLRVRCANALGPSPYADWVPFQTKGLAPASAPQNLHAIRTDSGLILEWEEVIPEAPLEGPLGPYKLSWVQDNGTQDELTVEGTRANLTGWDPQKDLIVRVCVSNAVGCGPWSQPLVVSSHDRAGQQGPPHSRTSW
In words: Biacore binding analysis on immobilised human Tyro3. To be noted: 10 μg/mL in HBS-EP, 25° C. As for the experimental part:
(§1) All binding experiments were performed using Biacore 3000 instrument (GE Healthcare) at 25° C. Soluble recombinant antigens corresponding to the extracellular domains of members of the human TAM receptor family, Axl (rhAxl-Fc chimera; R&D Systems, Cat. no. 154-AL), Mer (rhMer-Fc chimera; R&D Systems, Cat. no. 891-MR) and Tyro3 (rhTyro3/Dtk-Fc chimera; R&D Systems, Cat. no. 859-DK) were immobilized on the surface of CM5 sensor chip using amine coupling at the surface density of 393.0, 303.6 and 364.0 resonance units (RU), respectively. The Biacore run was performed in an automatic mode using Binding analysis wizard. Samples containing MAb 10G5 at concentration 10 μg/mL in HBS-EP buffer (GE Healthcare) were injected over the surfaces with immobilized antigens at flow rate of 30 μL/min for 3 min (association) followed by 5 min dissociation.
(§2) The binding experiments were performed using Biacore 3000 instrument (GE Healthcare) at 25° C. The soluble recombinant antigens corresponding to human Axl (rhAxl-Fc chimera; R&D Systems, Cat. no. 154-AL), mouse Axl (rmAxl-Fc chimera; R&D Systems, R&D Systems; Cat. no. 854-AX) and human Tyro3 (rhTyro3/Dtk-Fc chimera; R&D Systems, Cat. no. 859-DK) were immobilized on the surface of CM5 sensor chip using amine coupling at the surface density of 1,308.0, 2,115.9 and 1,429.0 RU, respectively. The Biacore runs were performed in an automatic mode using Binding analysis wizard.
(§3) The sample containing MAb 10G5 or recombinant mouse (rm) Axl-ligand Gas6 (R&D Systems, Cat. no. 986-GS/CF) at concentration 10 μg/mL in HBS-EP buffer (GE Healthcare) was injected over the surfaces with immobilized antigens at flow rate of 30 μL/min for 3 min (association) followed by 5 min dissociation.
(In general: In SPR one partner is held on a chip, and binding of the other changes the refractive index at the surface.)

The target of experiment [2] is T2, mouse Axl (rmAxl-Fc chimera; Mm-Axl-Fc) (Mus musculus, UniProt Q00993).
T2 construct: The soluble recombinant antigens corresponding to human Axl (rhAxl-Fc chimera; R&D Systems, Cat. no; 154-AL), mouse Axl (rmAxl-Fc chimera; Fc; purchased R&D Systems 854-AX
In words: Biacore binding analysis on immobilised mouse Axl. As for the experimental part:
as §2, §3
Sensor chip with immobilised Axl: Hs-Axl-Fc (638.2 RU), Mm-Axl-Fc (334.5 RU), Rhe-Axl-Fc (350.2 RU)
All tests were performed in parallel on Hs-Axl-Fc, Mm-Axl-Fc and Rhe-Axl-Fc surfaces.

Experiment [3] has as its target T3, human Axl (rhAxl-Fc chimera) (Homo sapiens, UniProt P30530).
T3 construct: Soluble recombinant antigens corresponding to the extracellular domains of members of the human TAM receptor family; Fc; purchased R&D Systems 154-AL
In words: Biacore binding analysis on immobilised human Axl. To be noted: 10 μg/mL in HBS-EP, 25° C. How it is done: as §1, §2, §3
The sequence of Axl receptor from cynomolgus monkey (Macaca fascicularis; SEQ ID NO: 27) was retrieved from WO2009062690A1. Based on the sequence, recombinant extracellular domain of cyno-Axl was generated by transient expression in CHO cells as a fusion protein with human Fc. The recombinant cyno-Axl-Fc was purified to homogeneity using Protein A-Sepharose (GE Healthcare). The binding experiments were performed using Biacore 3000 instrument (GE Healthcare) at 25° C. The soluble recombinant antigens corresponding to human Axl (rhAxl-Fc chimera; R&D Systems, Cat. no. 154-AL) and cyno-Axl were immobilized on the surface of CM5 sensor chip using amine coupling at the surface density of 775 and 880 RU, respectively. The Biacore runs were performed in an automatic mode using Binding analysis wizard.
The sample containing MAb 10G5 or human Axl-specific MAb 5F11 (control) at concentration 10 μg/mL in HBS-EP buffer (GE Healthcare) was injected over the surfaces with immobilized antigens at flow rate of 30 μL/min for 3 min (association) followed by 5 min dissociation. […]

Experiment [4] deals with T3, human Axl (rhAxl-Fc chimera). Description: Biacore kinetic analysis (surface plasmon resonance) on immobilised rhAxl-Fc. In kind it is binding. As for the experimental part: Kinetic analysis of murine MAb 10G5 interacting with rhAxl immobilized on the surface of the Biacore sensor chip. Overlay plots of sensograms for different antibody concentrations (0.3-166.7 nM for murine 10G5) are shown. The precise kinetic analysis was performed using BIA evaluation software and curve fitting according to 1:1 Langmuir binding model. […]
Affinity determination of anti-Axl antibody 10G5 was performed at 25° C. by surface plasmon resonance measurements using Biacore 3000 instrument (GE Healthcare). As a solid antigen-coated surface, a sensor chip CM5 with immobilized rhAxl-Fc chimera (R&D Systems, Cat. no. 154-AL) at density 190 RU was used.
For the kinetics measurements, different concentrations of anti-Axl antibodies (from 0.3 to 666.7 nM) in HBS-EP buffer (Biacore, Cat. no. BR-1001-88) were injected at flow rate of 30 μL/min with 3 min injection time followed by 5 min dissociation (buffer alone). After each cycle, the surface was regenerated by 30 sec injection of a regeneration solution (10 mM HCl, 1 M NaCl) at flow rate 50 μL/min.
The kinetic association (on-rate, kon) and dissociation (off-rate, koff) rates were calculated using BIAevaluation software and 1:1 Langmuir binding model. The equilibrium dissociation constant (KD) was calculated as the koff/kon ratio. The half-life (t1/2) of the formed antibody-antigen complexes was calculated as the ln 2/koff ratio. […]

Where [5] appears, read: rhAxl immobilized on Biacore sensor chip, 25° C., 1:1 Langmuir binding model.

Like-named read-outs stand apart in the source and are kept apart here.

T2 sequence (Q00993 19-445 limits assumed, change not shown): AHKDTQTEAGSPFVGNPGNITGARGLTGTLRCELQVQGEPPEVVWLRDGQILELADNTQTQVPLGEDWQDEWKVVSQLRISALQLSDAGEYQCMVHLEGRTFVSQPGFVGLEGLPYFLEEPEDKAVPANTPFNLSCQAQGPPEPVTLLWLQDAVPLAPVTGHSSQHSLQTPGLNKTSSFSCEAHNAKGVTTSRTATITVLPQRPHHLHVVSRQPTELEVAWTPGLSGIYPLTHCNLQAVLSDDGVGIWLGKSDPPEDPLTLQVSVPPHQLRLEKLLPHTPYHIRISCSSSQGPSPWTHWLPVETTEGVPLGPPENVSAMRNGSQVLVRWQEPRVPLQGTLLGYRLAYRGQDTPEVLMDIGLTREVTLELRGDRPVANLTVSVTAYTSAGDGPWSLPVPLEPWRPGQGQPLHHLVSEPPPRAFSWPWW

B1: mouse Gas6: recombinant mouse Axl-ligand Gas6 (R&D Systems) (protein)
chain: QCTPNPCDKKGTHICQDLMGNFFCVCTDGWGGRLCDKDVNECVQKNGGCSQVCHNKPGSFQCACHSGFSLASDGQTCQDIDECTDSDTCGDARCKNLPGSYSCLCDEGYTYSSKEKTCQDVDECQQDRCEQTCVNSPGSYTCHCDGRGGLKLSPDMDTCEDILPCVPFSMAKSVKSLYLGRMFSGTPVIRLRFKRLQPTRLLAEFDFRTFDPEGVLFFAGGRSDSTWIVLGLRAGRLELQLRYNGVGRITSSGPTINHGMWQTISVEELERNLVIKVNKDAVMKIAVAGELFQLERGLYHLNLTVGGIPFKESELVQPINPRLDGCMRSWNWLNGEDSAIQETVKANTKMQCFSVTERGSFFPGNGFATYRLNYTRTSLDVGTETTWEVKVVARIRPATDTGVLLALVGDDDVVPISVALVDYHSTKKLKKQLVVLAVEDVALALMEIKVCDSQEHTVTVSLREGEATLEVDGTKGQSEVSTAQLQERLDTLKTHLQGSVHTYVGGLPEVSVISAPVTAFYRGCMTLEVNGKILDLDTASYKHSDITSHSCPPVEHATP
For the molecule B1, the results for the “Binding to recombinant human Tyro3” value in experiment [1] and in experiment [1] (listed as murine Gas 6) were “somewhat weaker binding” and “more weakly”, respectively. In addition, the figures for the “Binding to mouse Axl” value in experiment [2] and in experiment [2] (listed as murine Gas 6) were “strong binding” and “binds strongly”, respectively. Besides, the results for the “Binding to human Axl” value in experiment [3] and in experiment [3] (listed as murine Gas 6) were “strong binding” and “binds strongly”, respectively.

B2: H1L1: humanised 10G5 variant; presumably VH GH1 (SEQ ID NO: 1) with VL GL1 (SEQ ID NO: 3) (antibody, V domains shown)
VH: EVQLVQSGAGLVQPGGSVRLSCAASGYSFTDFYINWVRQAPGKGLEWIARIFPGGDNTYYNEKFKGRFTLSADTSSSTAYLQLNSLRAEDTAVYYCARRGLYYAMDYWGQGTLVTVSS
VL: DIQMTQSPSSLSASVGDRVTITCRSSQSLVHSNGIPYLHWYQQKPGKAPKLLIYRVSNRFSGVPSRFSGSGSGTDFTLTISSLQPEDFATYYCSQGTHVPPTFGQGTKVEIK
modifications: hu10G5 VH(GH1); hu10G5 VL(GL1)
With B2, the “KD lower than that of the chimeric antibody” value in experiment [4] (comparison referring to Table 3) is recorded as “at least 30%”. Moreover, in experiment [4] (setting [5]), the “Off-rate (koff)” value amounted to 0.000161 s⁻¹ and the “On-rate (kon)” value was found to be 1.54e+06 M⁻¹ s⁻¹.
